This note sets out measurements from the DeepSol protein solubility set.

A short description of this data set: soluble on expression in E. coli; label from the status in PepcDB or PDB records.
Turning to “MSLLNKMRCSVSAEVYGEWNKKKNFVAPVYEKDEGQKEQLERILRQSFLFNSLDEKDLNTVILAMQEKKIEASTCLIREGDDGECLYIVQSGELNCSKLIDGEERVVKVVGPGDAFGELALLYNAPRAATVTSVSACDLWELGRDTFNAIVKDAATKRRSMYDSFLKSVHILDGMDAYERGKVADALRTEMFTDGAYIVRQGELGDVFYIVEEGSAVATKSFGPGQPPIEVKKYQAGDYFGELALINEEPRAANVIAHGICKVACLERKSFKRLMGSVQDLLSKKASDLLTMAEEGHHHHHH”, the “soluble on expression in E. coli” value is “soluble”.

Turning to “MSLLNTYEPWKFAFSQEETDFNNLKEGAWGIIGVPFDSTTSYHPGSRFGPIVVREASYGFEKYNTIFNTQLDNIFYDFGDVNVVFGNCKKTCDIIEDTVNELSDLKIKPLTIGGEHSLTIGVLNSLTKKYDDLTVVHLDAHRDLADTFIGELYSHASVMKRVHEMGVKELVQIGIRSASKEEEDFVKNQSNITTFKNNDVFHHLDNIEYYLSIIDTPIYLSIDMDVFDPSIAPTVGNPTPNGIAYGHIEAMLQTLSLKNVVGMDVVETAGDRLGDITAVSASKIIYDFLSLLEGHHHHHH”, the “soluble on expression in E. coli” value is “soluble”.

With “MSLLRKDATEERLTGRYFTPKDLASYIIDWVIQDNNINKILEPSCGNGVFLECLGERRLEDGRNITAIEIDEDVSFEASMQIDNSLRFNNCYDYQRALRNDGDIVNNGIVIINDDFYKVYEQELQGQRFQAIVGNPPYIRYQYLSEQQREEQSKILIRNNMRPNKLINAWVSFVVACAEILDGNGKMGLVIPAELLQVAYAEDLRRFIMRTFQRITIVTFRELVFPNVQQEVVLLLVEKEILHTREGHHHHHH”, the “soluble on expression in E. coli” value is “soluble”.

With “MSLLSGGLSLNDKSWQALVFDYTNDGMGWPIGALASAEQILLAMSAQLVDTDFELSLLLPEGEGEEALFELADAVAEWINHFISGLGLSGANLKHASVEAKEALEDLEEMSKLGIDEEDDLAEQAELLEQVIEHIKVCVLVLHAEFGVKPEQDTKPTVHEGGSHHHHHH”, the “soluble on expression in E. coli” value was “soluble”.

“MSLLSYQHIYHAGNLADVQKHALLALALDYLTRKDKPLSYLETHAGRGLYHLDAAEAVRTGEAGAGIGRAEGAAWFDPAHPMTRVLAAVRTDHGAMAYPGSPLVAAHLLRPGDMMHLAELHPQEHAALEQAMAGYPARVYRRDGVEMAQSLLPPEPRRGMMLIDPSYEVKSDYDRIPAVIAQLHRKWNVGVIALWYPILTDERHKVMLAALERLDLPRVLRHEVRFAPAREGHRMVGSGMFVINAPFGLADEAARLSGLFAQLEGHHHHHH”: the “soluble on expression in E. coli” value is given as “soluble”.

For “MSLLTLLRPATVQDCKDIFKVHLHSVQYTCILSYNEHALKVWEGLLNTESYLPTISDPDKALWVAEYKGNIQGFFQIDCQEAQLDALYVHPLFHNLGLGTALLHQAETIAHKSGLSFLKLYASLNSVPFYLLNRYESLGSAVLQLDPSIKIKCELMRKHL”, the “soluble on expression in E. coli” value is reported as “not soluble”.

Regarding “MSLMKQNPILITGGTGTVGSRIASRLIKLGYRVRIASRKKGALADAEYVYFNWKYASSFTPALEQVKQIYLVAPVGVFDPAPYVLPFLKEAKRLGAKRVVMQSASVVSENGPVFGALHQAVREFPEWTVLRPSYFMQNFINVQHRMSIQTEGRITTASGEGKLGFIDADDIAETAVRALIDDVPHQTHHILTGPEALSYAEAAEIIGAAAGRRVEHVSISRSELQHKMEAGGLPADYAHFMAKLDEAISHGAEHRVTDTVKRVTGKEPRSLSEFAAAHAAYWTSFWTEEGGSHHHHHH”, the “soluble on expression in E. coli” value was “soluble”.

As to “MSLNAKTVTELRSALLYMRAEDYHLWVNMGLALRELGETGRGLWMEWSATSEKFDSKDAAKKWNSFKPTGTSYQAVFAEAARHGWVNPGRSDAQLTGRRVQTQLKTSHKIKLEFAMSSDTETAKVSYLVDPFLPCKCVVGFFGRGGTAKSSFLATMAAMISQRASTLWVSAEELTDWIKARHIKTGGAPGTLQVFRGIETDEHSGQHIQVFGVYEHLDAALTMSNVAARDAGMPAVRLVVLDTAVALTIWPSGQGPNDDASVKRLLAYMQALAEKHDVTIAFIGHNNKRSSQNTEHFEDMVAGAGAWVTSPRVAFVHARDRREENSYVMRLAKPQLTPRFLVTYKTEPVHTLAQREDAPASVLCRVALGDEYIWGEDESASVFDAATGKDTEEDSGHVLEQRATTVQQVIDALVQMVHMTNAGQDVTRDMVHSALHRIVNGRRWKDVDDRLYMAQFQYRIAIVRGPNNQVLYRKMGPAEGHHHHHH”, the “soluble on expression in E. coli” value is reported as “soluble”.

For “MSLNANRPIINLDLDLLRTFVAVADLNTFAAAAAAVCRTQSAVSQQMQRLEQLVGKELFARHGRNKLLTEHGIQLLGYARKILRFNDEACSSLMFSNLQGVLTIGASDESADTILPFLLSRISSVYPKLALDVRVKRNAYMVDMVKSQEVDLVVTTNQPHSLDCLNLRTSPTHWYCAAEYVLQRGEPVPLVLLDDPSPFRDMVLETLNAAGIPWRLAYVASTLPAVRAAVKAGLGVTARPVEMMSPDLRVLGAADGLPPLPDTEYLLCRDPNSQNELAMVIFHAMESYQNEGHHHHHH”, the “soluble on expression in E. coli” value is “soluble”.

For “MSLNDFRPNPSLLLETSWEVCNKQGGIYTVLTSRAHEMMKRHDGRIIFIGPLLTEQEDLPTDFENTVPAILEDWHRDAAPSLDLRYVCGSWRTPGSPPVVLVDFEPLHAQKATLYYEMWEHFGIQSDKGYGDYDEASLFGIAAAQTMHSLCEYLCPEDQPAIGIFNEWMLGMGLLYSKRKTPRLKTLFLTHATTTGRSIAGNNKALYAYMPGYNGDQMAAELGVEAKHGIEKAAAHQSDTFATVSELTAKECRQLLERDPMVLPNGFEPNFVPQGEEYERRRAEARKRLLHVAEHLTGKQLPADTLLIATSGRYEYRNKGIDLFIDAASEAGRSGKLRTPTLAFILVPAWVAGARADLQYLLNHPDPTEYKEKPLPYPFLTHWLHDIQEQTISKRLDESAGSAGEVSFIFVPCYLNRKDGIFGLGYYDLLIGMDLTVFPSYYEPWGYTPLESIAFGIPTVTTDLSGFGLWAMQERGSRNDFSTGVAVIKRTDDNYAEAVQAIADLLYRWPAESTDRTACRLAAMQTASHAEWRLFYNRYEEAYSELLSRDEGHHHHHH”, the “soluble on expression in E. coli” value is “soluble”.

For the sequence “MSLNEAGIVLLPKSRQLPALSMIDQNGAAVALDGLKDQWTLMFFGYTFCPDICPTTLAQIKQIRSELPTAAVERMRVVLVSVDPNRDTPQQLKEYLSYFDPQYIGLTAPVADIQKLANSVSIPFIPADTSKPNYFVDHSGNLALIGPDGTQRGFIRAPLNNQKLVKQLPRLLERDEGHHHHHH”, the “soluble on expression in E. coli” value is listed as “soluble”.

With “MSLNEITVSLDVIIKNKNVMVSSLSVAKAFDRQHSHILRSIEDIKRDWDSLIQSKNGLNRNIIPLKSQGNKQVIFTDYFKESEYIAENGRLVKFFEMNRNGFMLLANSFNGKRILPIKLAFIERFDELEHITLEQAKETENRKNLNQAIKESPHFKPFYYSRFSDFLCQLITHNKYKTVKKLREDKGYYGKQFSKIPLKSMLDSEEDLKRLQKLENSIIAWLEIDYSFREIKAFLTKEKAQPLPTKEGHHHHHH”, the “soluble on expression in E. coli” value is listed as “not soluble”.

Take “MSLNFVAMDFETANQHPASACSLALVLVRESKIIDRFYTVINPQMAFDAQQVKVHDITAEDVAGAPTMAEVWPKIQPLFQPGMLVAAHNARFDCNVMKQSLARYGIAEPHYLVLDSLKVSRELEPGLDNYQLNTVSDLLGVELWHHHNALSDSEACAGILLKEEEKRGSELLKKFVYQVEGHHHHHH”: the “soluble on expression in E. coli” value is listed as “not soluble”.

Consider “MSLNGDYQLTIDKMLESGVSSNPNQIINYSGKKTFTYKEFRERVYRLAKALISIGVKKGDTVAVIDWDTYVYLEAYFAVPMIGAVLHTVNVRYPQDLIYYTMDHAEDKYVIVRDEFVPILSKNKEAFYFIKGWIIYSEYGNVPDELSPKYIYDELMSKNYDIELPEISENDLATTFYTSGTTGIPKGVQFTHRQIVLHAISSGLALSDRPISLTADDVIMPLVPMFHVHAWGVPYMTIMSGRQYVLPGRYDFDHIIDLIAQENITVIAMVPSILYMIVTNPNVGKIAGRKIRAIIGGGALPEGLQKAAEKLGIMAISGYGLSETAPILTLATYNSDVKKLPLEEQKKYHLKTGIPIPLVQLRVIDDKWNDVPRDEKTIGEIVVRAPWLTSVYVKNKEGTEALWKGGWMHTGDLAVMDKFGYIKIVDREKDAVKSGGEFIPSLILEDAISACPGVVENAVVGKPHEKWGERPVAFYTGTAKPEEIRKCLEDIVRQGRIAKFWIPDDFINVKEFVKTSTGKIDKKVLREMLKKEGHHHHHH”, for which the “soluble on expression in E. coli” value was “soluble”.

As for “MSLNHHPIIYLVDHQKDARAALSKLLSPLDVTIQCFASAESFMRQQISDDAIGMIIEAHLEDKKDSGIELLETLVKRGFHLPTIVMASSSDIPTAVRAMRASAADFIEKPFIEHVLVHDVQQIINGAKEGHHHHHH”, the “soluble on expression in E. coli” value was “soluble”.

For the sequence “MSLNHVRPWRNIHRRKSRQIMVGNVPVGGDAPISVQTMTNTITADAPATIAQVLRAAEAGADIVRVSVPDEASTRALKEIVAASPVPIVADIHFHYKRAIEAAEAGAACLRINPGNIGDASRVREVIKAARDHGCSMRIGVNAGSLEKHLLDKYGEPCPEAMVESGLDHIKILQDNDFHEFKISVKASDVFLAAAAYQALADATDAPIHLGITEAGGLTAGTVKSAVGLGNLLWSGIGDTLRVSLSADPVEEVKVGYEILKSLGLRHRGVTIISCPSCARQGFDVIKTVAELEDRLAHVTTSMSLSIIGCVVNGPGEALMTDIGFTGGGNGSGMVYLAGKQAHKLGSERMIDEIVSMVESRAAEIEAEKLAAAEAAE”, the “soluble on expression in E. coli” value is “not soluble”.

For “MSLNIFDIAKQNQEKAWQVIKNTNIIQIWEDAGAKINLVGSLRTGLLMKHRDIDFHIYSSPLNLTDSFQAMARLAENPSIKRIECANLLHTAEACIEWHAWYQNEENELWQMDMIHIREGSRYDGYFEKVAQRISEIMTDEIRETILRLKYETPETEKIIGVEYYQAVIRDGVRDYSGFKEWRKQHPVTGVVEWMPEGHHHHHH”, the “soluble on expression in E. coli” value is on record as “soluble”.

Regarding “MSLNKAILHDHLDGGLRPSTALELAKNDSYKPLLEIENISSFFDRSSSNSLEDYLEAFIHTTALMNKYENLERIAFEAAEDMHNCGINLYESRYAPLYSVNENLSIKDVLESINSGFKQAENLYGIQSGLILCGMRNDLKNVESVGEIAVKYKDLIIGFDIAGPELNFRPSLFSSTFKKVKNAGVNITIHAGEGDNVESIKDALENGAKRIGHGVRIIEDINLENNKLGETASLIRDKQIPLEICITSNIHTNMYKSYESHPIKDLVDLGFNISLNTDNRLMSNTDIVKEMNICKNIGIKNPENLLEMSASYSFLNEGHHHHHH”, the “soluble on expression in E. coli” value was “not soluble”.

Consider “MSLNKPLADRMRPIKLEDVVGQEHILSKNQILNKTLQAGHITNMIFYGPPGVGKTTVANIISNMTNKKLYKLNATNASIKDIQRIVAELDSFMTMNGVLLYLDEIQNFNKKQQQSLLEYIENGKITLIASTTENPYHYIYNAILSRSTVFEFKLLTKSNVIEGLKQVIKRINDEGKTLVEYEEEALDYIATASNGDLRRAMNALELAMYAAESENKEQVFLTIHIAQESTQKKVISYDKFGDQHYDILSAFQKSIRGTDPDAAIHYLARLVKAGDLNSICRRLLVIASEDIGLAYPTAITIVKSCVDAAMQVGFPEARINLAQATLVLATAPKSNSVIEAMDRALADLDQKDIGEIPTSLKDAHYKGASDLGRGVTYKYPHHYENNYIQQQYLPENIKNEKYYGSQNNKMEQRIFSYLEQLKKEGHHHHHH”, for which the “soluble on expression in E. coli” value is reported as “not soluble”.

Consider “MSLNKQDKKWRVLVVDDDADVLTNTVYTLMDLKVLGRELDITTLGSATAAIELLERERDFAVILLDVVMEKPHAGLSLVTMIRHDFNMQMSRIILRTGNPGYAPERDITLKLEIDDYILKQTAVRDRIITAVIVAIRAYDQLQRLARLKDAMQQIICCSNQLLTTDEIDQFANVCMQYVAPIFGKNAGGGLAYAGMTVNQGIVPLTVMSATSEHESLIEPLNGIGVLPPNISVTKKKMTKALEQTNSIKTDKDWYIYIKVSLGRKVVLWLNKPDGFDEIDETLGKSFANTIKACLDREGHHHHHH”, for which the “soluble on expression in E. coli” value is recorded as “soluble”.
